Assay results from PMC11154705, “Spatio-temporal control of asymmetric septum positioning during sporulation in Bacillus subtilis” (The Journal of Biological Chemistry, 2024).
Several values for one entry are separate records, joined by “and”; a condition that tells them apart may be missing. Equal values may be shown once.

Target: the molecule itself
Assay: SEC; Superdex S200 16/60 in 50 mM Tris-HCl pH 8.5, 300 mM NaCl; proteins applied separately or mixed (350 ul RefZ 28.8 uM premixed with 350 ul cyt-SpoIIE 15.5 uM, dialyzed overnight, 500 ul loaded); fractions analysed by anti-His Western blot

B1: His-tagged cytosolic part of SpoIIE (375-827 aa) (domain or fragment, B. subtilis, UniProt P37475 375-827, looked up)
chain: YQASDEQTDDSEVDLFLSKITEHSCQTCYKKNRCWVQNFDKTYDLMKQVMLETEEKEYASNRRLKKEFQQYCSKSKQVEELIEDELAHHHAHLTLKKKVQDSRRLVAEQLLGVSEVMADFSREIKREREQHFLQEEQIIEALQHFGIEIQHVEIYSLEQGNIDIEMTIPFSGHGESEKIIAPMLSDILEEQILVKAEQHSPHPNGYSHVAFGSTKSYRVSTGAAHAAKGGGLVSGDSYSMMELGARKYAAAISDGMGNGARAHFESNETIKLLEKILESGIDEKIAIKTINSILSLRTTDEIYSTLDLSIIDLQDASCKFLKVGSTPSFIKRGDQVMKVQASNLPIGIINEFDVEVVSEQLKAGDLLIMMSDGIFEGPKHVENHDLWMKRKMKGLKTNDPQEIADLLMEEVIRTRSGQIEDDMTVVVVRIDHNTPKWASIPVPAIFQNKQEIS
notes: SpoIIE, Bacillus subtilis, cytosolic part, residues 375-827; Elutes as dimers, tetramers and higher oligomers; also called cyt-SpoIIE; not shown: His-tag, N-terminal, kept
- stoichiometry N: 2 and 4
